Source: patent publication US20250043319A1, “BIOSYNTHESIS OF CYCLOLAVANDULYL DERIVATIVES OF AROMATIC COMPOUNDS” (Invizyne Technologies, Inc., priority 2022, published 2025)

B1: MzPT2: prenyltransferase, Accession: WP_135330626.1, SEQ ID NO: 19 (protein, listed as Streptomyces sp.)
chain: MSGTAVEKLYSAIEETAGLLDVTCSRDKVWPVLASFEDAIPQAAILFRVATDKRHAGELNLHFMMLPGDVDPYALALSNDLMAKTEHPVGSLLSDIAERFPVESYGIDFGVVKGFQKTWSCFPGNSMQSLSKLAEVPSVPSSLAGNLDFFSRYGLDENVTLVGIDFEHRTMNVYFGEVAELLEPDAVKSMLRDLEMPEPSEQLLNFAKQSFGFYATLSWDSPRIERFCYAAIAPDPMALLDQVEPKIEHFLKTVPYGVDDPKAVYAATSPNDGEFYKIQSYYQWRPRLVNHMHTSVSDSGE
B2: NphB: naturally occurring prenyltransferase from Streptomyces sp. CL190, Accession: 1ZB6_A, SEQ ID NO: 8 (protein, listed as Streptomyces sp.)
chain: MSEAADVERVYAAMEEAAGLLGVACARDKIYPLLSTFQDTLVEGGSVVVFSMASGRHSTELDFSISVPTSHGDPYATVVEKGLFPATGHPVDDLLADTQKHLPVSMFAIDGEVTGGFKKTYAFFPTDNMPGVAELSAIPSMPPAVAENAELFARYGLDKVQMTSMDYKKRQVNLYFSELSAQTLEAESVLALVRELGLHVPNELGLKFCKRSFSVYPTLNWETGKIDRLCFAVISNDPTLVPSSDEGDIEKFHNYATKAPYAYVGEKRTLVYGLTLSPKEEYYKLGAYYHITDVQRGLLKAFDSLED
B3: AbPT: prenyltransferase, Accession: KPI30840.1, SEQ ID NO: 9 (protein, listed as Actinomyces sp.)
chain: MSGKANIQRVYSAVEEAADLLDIACSREQMWPTLTAFEDVLTDGAIVFNMVTSGGRIGDLSFDFTLPPSAGDPYELALAHGLVDETDHPVRALFSDIQARFPLQAYGVDHGITSGFHKTYAFFPLGDLQSVAELADIPSMPSGLSEHVTSFAAYGLDDKVSAIAIDYARRTWNVYFNGLSAPHVQRTAVLSMLSEFGLPEPSAQLLEFIETSSALYPTFGWDSSKIERISFSTRTTDPVALPARIEPKLEKFARSAPHVYEGERVLVYAGALSPSEEYYKLATYYQMTAAAHDRVRSAN
B4: AtaWTPT: prenyltransferase, Accession: AMB20850.1, SEQ ID NO: 17 (protein, listed as Aspergillus terreus)
chain: MLPPSDSKDPRPWQILSQALGFPNYDQELWWQNTAETLNRVLEQCDYSVHLQYKYLAFYHKYILPSLGPFRRPGVEPEYISGLSHGGHPLEISVKIDKSKTICRLGLQAIGPLAGTARDPLNSFGDRELLKNLATLLPHVDLRLFDHFNAQVGLDRAQCAVATTKLIKESHNIVCTSLDLKDGEVIPKVYFSTIPKGLVTETPLFDLTFAAIEQMEVYHKDAPLRTALSSLKDFLRPRVPTDASITPPLTGLIGVDCIDPMLSRLKVYLATFRMDLSLIRDYWTLGGLLTDAGTMKGLEMVETLAKTLKLGDEACETLDAERLPFGINYAMKPGTAELAPPQIYFPLLGINDGFIADALVEFFQYMGWEDQANRYKDELKAKFPNVDISQTKNVHRWLGVAYSETKGPSMNIYYDVVAGNVARV
B5: NapT9: prenyltransferase, Accession: ABS50490.1, SEQ ID NO: 14 (protein, listed as Streptomyces sp.)
chain: MSGATGAEKLYSAIEESARMVDAPFSRDKVWPTLSAFEGGFSDAGGVILSLQAGTHVPEMEYSAQVSPGISDPYARALASGILTETDHPVSTVLAEIVSLAPTSEHYIDCGIVGGFKKIYANFPHDQQTVAALAGLPSMPRAVGGNAEFFARHGLDRVALIGVDYVNKTINLYFQVSAATAGNLDQKTVSAMLHETGMSEPSDAMVAYACQAYRIYTTLSWDAQEILRIAFAPKPRRGIDPADLPARLEPRIEKFLRATPHKYPGALINATAAKWSPEREVLDLAAHYQVSAVQMKAIEAEEGQAS
B6: MzPT1: prenyltransferase, Accession: WP_135330628.1, SEQ ID NO: 18 (protein, listed as Streptomyces sp.)
chain: MSRTAEVERVYSAIEEAAGLLSAVCSRDNVWPVLDAFGDELAEAMIVFGGQAGDRHAGELDYSFTVPSSIGNPYPHALSRGLVTETDHPVGSVLSDIQGRWPIKEHFVDAGVVGGFKKLYAHFPDNMQKVSDIADIPSMPRAVAENAALFARYGLDQVAMIGVDYRHKTVSVYFHFGPDGRPEPSTIRALLSDLGMPEPDEPTLEFAHKSLRVNITLGWETGDVIRVAFAPPPVRGLDPSALPGQLTPRMEEFARVSPRAYAGGRVNMYAVKWMRGEEFHEVCTYYQLTPWYEKILTDAPKEQQG

What was measured:
Assay type in all cases: biochemical
[1] = cell-free cyclolavandulylation activity screening of prenyltransferases, substrate tryptamine; conditions: cell-free reaction with CLDS and DMAPP (CLPP donor), 28° C., 48 hours, QTOF LC/MS, with vs without prenyltransferase
Description: (§1) Genes encoding the following prenyltransferases were codon-optimized, synthesized, and cloned into the pET28a vector for protein expression and isolation/purification as described in Example 1. • NphB (Accession: 1ZB6_A) (SEQ ID NO: 8) • AbPT (Accession: KPI30840.1) (SEQ ID NO: 9) • SkPT (Accession: Q2L6E3.1) (SEQ ID NO: 10) • SvPT (Accession: WP_078899560.1) (SEQ ID NO: 11) • Sr1310PT (Accession: WP_057602682.1) (SEQ ID NO: 12) • NapT8 (Accession: ABS50461.1) (SEQ ID NO: 13) • NapT9 (Accession: ABS50490.1) (SEQ ID NO: 14) • Mcl23PT (Accession: AGH68908.1) (SEQ ID NO: 15) • CnqP3PT (Accession: WP_047018069.1) (SEQ ID NO: 16) • AtaWTPT (Accession: AMB20850.1) (SEQ ID NO: 17) • MzPT1 (Accession: WP_135330628.1) (SEQ ID NO: 18) • MzPT2 (Accession: WP_135330626.1) (SEQ ID NO: 19) B. Cell-Free Biosynthesis Reaction with CLPP and Various Aromatic Substrates
(§2) The cyclolavandulyl diphosphate synthase, CLDS was prepared as described in Example 1 and used in the synthesis of CLPP.
(§3) Stocks of the various aromatic compounds used as substrates for cyclolavandulylation activity screening were obtained from the following commercial sources: • Resveratrol (Fisher Scientific) 200 mM stock in DMSO • Luteolin (Fisher Scientific) 200 mM stock in DMSO • Naringenin (Fisher Scientific) 200 mM stock in DMSO • Tryptamine (Fisher Scientific) 200 mM stock in DMSO • Tryptophan (Fisher Scientific) 40 mM stock in water • Olivetolic acid (Toronto Research Chemicals) 200 mM stock in DMSO • Divarinic acid (Toronto Research Chemicals) 200 mM stock in DMSO • Phorolic acid (prepared in house) 200 mM stock in DMSO • Olivetol (Fisher Scientific) 200 mM stock in DMSO • Screening for cell-free biosynthesis was carried out as follows. 10 mM DMAPP, 5 mM MgCl2, 100 mM Tris-HCl (pH=8), and 4 mg/mL CLDS (SEQ ID NO: 4) were combined in a 6.80 mL reaction, which was incubated at 28° C. for 48 hours. This mixture was aliquoted into a 96-well plate (80 μL per well). The various prenyltransferases (18 μL, ˜1 g/L final concentration) listed above were screened across various substrates (2 μL of stock solution, variable concentration shown above), which were added to the wells and incubated at 28° C. for an additional 48 hours.
(§4) Analysis of the reaction mixture was carried out as follows: 50 μL of the reaction mixture were added to 1 mL MeOH. The resulting solution was vortexed, centrifuged at 17,200 g for 5 minutes, and transferred to an HPLC vial for analysis. HRMS-QTOF analyses of the cell free reactions was performed on an Agilent Technologies 6545 Accurate Mass QTOF LC/MS with a reverse-phase column (Agilent Infinity Lab Poroshell 120 ECC18, 2.7 μm, 3.0×50 mm) using positive ESI with 1% MeCN—H2O (0.1% FA) for 2 min followed by a linear gradient of 1-99% MeCN—H2O (0.1% FA) for 14 min with a flow rate of 0.4 mL/min.
(§5) Mass spectrometric (MS) analysis of chromatograms was carried out using MassHunter Qualitative Analysis 10.0. Targeted metabolomics using the exact m/z of the calculated proton adduct [H^+] in the presence and absence of prenyltransferase indicated the presence of cyclolavandulylated product.

[2] = cell-free cyclolavandulylation activity screening of prenyltransferases, substrate resveratrol; conditions: cell-free reaction with CLDS and DMAPP (CLPP donor), 28° C., 48 hours, QTOF LC/MS, with vs without prenyltransferase
Description: as §1, §2, §3, §4, §5

[3] = cell-free cyclolavandulylation activity screening of prenyltransferases, substrate naringenin; conditions: cell-free reaction with CLDS and DMAPP (CLPP donor), 28° C., 48 hours, QTOF LC/MS, with vs without prenyltransferase
Description: as §1, §2, §3, §4, §5

[4] = cell-free cyclolavandulylation activity screening of prenyltransferases, substrate luteolin; conditions: cell-free reaction with CLDS and DMAPP (CLPP donor), 28° C., 48 hours, QTOF LC/MS, with vs without prenyltransferase
Description: as §1, §2, §3, §4, §5

[5] = cell-free cyclolavandulylation activity screening of prenyltransferases, substrate tryptophan; conditions: cell-free reaction with CLDS and DMAPP (CLPP donor), 28° C., 48 hours, QTOF LC/MS, with vs without prenyltransferase
Description: as §1, §2, §3, §4, §5

[6] = cell-free cyclolavandulylation activity screening of prenyltransferases, substrate olivetolic acid; conditions: cell-free reaction with CLDS and DMAPP (CLPP donor), 28° C., 48 hours, QTOF LC/MS, with vs without prenyltransferase
Description: as §1, §2, §3, §4, §5

[7] = cell-free cyclolavandulylation activity screening of prenyltransferases, summary over all tested substrates; conditions: any of the tested substrates; cell-free biosynthesis reaction with CLDS from Streptomyces sp. CL190 and DMAPP
Description: as §1, §2, §3, §4, §5

Row | Molecule | presence of cyclolavandulylated product, Aromatic Compound (Substrate) Tryptamine [1] | presence of cyclolavandulylated product, Aromatic Compound (Substrate) Resveratrol [2] | presence of cyclolavandulylated product, Aromatic Compound (Substrate) Naringenin [3] | presence of cyclolavandulylated product, Aromatic Compound (Substrate) Luteolin [4] | presence of cyclolavandulylated product, Aromatic Compound (Substrate) Tryptophan [5] | presence of cyclolavandulylated product, Aromatic Compound (Substrate) Olivetolic Acid [6] | cyclolavandulylation activity with tested aromatic compounds (summary of Table 7) [7]
1 | B1 | No | No | No | No | No | No | 
2 | B2 | No | No | Yes | No | Yes | No | produced a cyclolavandulylated aromatic compound
3 | B3 | No | No | No | No | Yes | No | produced a cyclolavandulylated aromatic compound
4 | B4 | No | Yes | Yes | No | Yes | No | produced a cyclolavandulylated aromatic compound
5 | B5 | No | No | No | Yes | No | No | produced a cyclolavandulylated aromatic compound
6 | B6 | No | No | No | No | No | Yes | produced a cyclolavandulylated aromatic compound
